Assay [1] deals with T1, 6His-S-Importin β(1-876), full-length WT human importin β (human, UniProt Q14974 1-876).
T1 construct: human importin β (KPNB1), full length, residues 1-876, expressed from pET30a; Construct from Chi et al., 1997; also called KPNB1; WT importin β (pKW485)
Nature of the assay: FRET or BRET; Rango FRET sensor in solution: 20 nM Rango-2/α1 (pK188) and 50 nM importin β (pKW485) in TBS pH 7.4, 0.01% Tween-20, with increasing concentrations of DPR 10-mers or ZZ-RanQ69L-GTP; ratio of acceptor (535 nm) to donor (480 nm) emission; non-linear fit with one binding site. The conditions noted are these: both partners purified. A general note: In BRET a luciferase serves as donor, and the signal depends on an acceptor being close.

The target of assay [2] is T2, biotinylated WT importin β-Avitag (human, UniProt Q14974 1-876, biotin on the Avitag).
T2 construct: WT human importin β (KPNB1) in pRSET A with C-terminal Avitag; Called WT; Held on neutravidin beads by the biotin; also called biotinylated importin β; importin β-coated beads; source: E. coli BL21DE3, co-expressed with BirA biotin ligase, purified (Ni-NTA)
Kind of assay: bead halo assay; biotinylated importin β or biotinylated BSA on neutravidin polystyrene beads; fluorescent prey (200 nM AF488-DPR, Rango) in binding buffer with assay buffer (EDTA, BSA, NaCl, Tween); room temperature, at least 30 min; confocal rim vs. background ratio. The conditions noted are these: both partners purified.

Where no end group is shown, it is not given here.

T1 sequence (Q14974 whole entry, the tested form may be a part): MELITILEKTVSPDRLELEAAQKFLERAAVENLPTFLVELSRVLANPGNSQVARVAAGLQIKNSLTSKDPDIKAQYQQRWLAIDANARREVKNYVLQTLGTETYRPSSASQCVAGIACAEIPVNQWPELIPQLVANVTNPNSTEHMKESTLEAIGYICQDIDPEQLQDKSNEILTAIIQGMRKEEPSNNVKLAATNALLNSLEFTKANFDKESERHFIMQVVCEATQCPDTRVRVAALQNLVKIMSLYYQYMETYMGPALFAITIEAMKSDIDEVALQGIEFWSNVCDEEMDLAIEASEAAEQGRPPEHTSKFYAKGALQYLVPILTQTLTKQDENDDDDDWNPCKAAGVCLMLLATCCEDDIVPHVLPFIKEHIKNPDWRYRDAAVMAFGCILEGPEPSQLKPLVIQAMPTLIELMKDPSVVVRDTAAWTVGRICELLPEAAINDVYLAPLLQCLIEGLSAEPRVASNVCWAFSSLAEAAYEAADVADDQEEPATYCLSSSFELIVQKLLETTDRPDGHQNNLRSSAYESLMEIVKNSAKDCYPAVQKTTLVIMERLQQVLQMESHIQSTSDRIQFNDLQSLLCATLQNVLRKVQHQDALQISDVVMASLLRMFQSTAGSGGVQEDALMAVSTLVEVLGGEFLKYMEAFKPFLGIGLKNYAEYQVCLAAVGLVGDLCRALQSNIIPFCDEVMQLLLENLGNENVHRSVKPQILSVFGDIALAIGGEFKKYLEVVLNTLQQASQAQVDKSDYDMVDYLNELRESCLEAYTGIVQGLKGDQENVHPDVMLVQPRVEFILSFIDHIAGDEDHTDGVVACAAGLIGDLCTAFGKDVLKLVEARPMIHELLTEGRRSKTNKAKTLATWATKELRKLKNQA
T2 sequence (Q14974 whole entry): as the sequence (Q14974 whole entry, the tested form may be a part) above

B1: GR10, synthetic poly-glycine-arginine 10-mer dipeptide repeat protein with C-terminal lysine and cysteine (peptide)
peptide: GRGRGRGRGRGRGRGRGRGRKC
notes: C9orf72 repeat-associated non-AUG translation product poly-GR, 10 repeats, plus C-terminal K (solubility) and C (labelling); unlabelled form, used in the FRET, GFP-Trap, sedimentation and import assays; also called poly-GR; R-DPR; source: synthetic peptide (Genscript; 21st Century Biochemicals)
With B1, the binding result in assay [1] is “binds”.

B2: AF488-labeled PR10 (peptide)
peptide: PRPRPRPRPRPRPRPRPRPRKC(Alexa Fluor 488 C5‑maleimide)
notes: poly-PR, 10 repeats, plus C-terminal K and C; also called AF488-PR10; DPR-AF488; source: synthetic peptide (Genscript)
Consider B2, for which the “halo intensity (rim vs. background) relative to control beads” value in assay [2] is approximately 2 fold.

B3: PR10, synthetic poly-proline-arginine 10-mer dipeptide repeat protein with C-terminal lysine and cysteine (peptide)
peptide: PRPRPRPRPRPRPRPRPRPRKC
notes: C9orf72 repeat-associated non-AUG translation product poly-PR, 10 repeats, plus C-terminal K and C; unlabelled form; also called R-DPR; source: synthetic peptide (Genscript; 21st Century Biochemicals)
As for B3, the binding result in assay [1] is listed as “binds”.

B4: AF488-labeled GR10 (peptide)
peptide: GRGRGRGRGRGRGRGRGRGRKC(Alexa Fluor 488 C5‑maleimide)
notes: poly-GR, 10 repeats, plus C-terminal K and C; also called AF488-GR10; DPR-AF488; source: synthetic peptide (Genscript)
For B4, the “halo intensity (rim vs. background) relative to control beads” value in assay [2] is approximately 2 fold.

The values above are taken from paper PMC7051184, “C9orf72 arginine-rich dipeptide repeat proteins disrupt karyopherin-mediated nuclear import” (eLife, 2020).
